Experiment [1] addresses Palivizumab. In words: SPR; Palivizumab (about 1000 RU) or P^scFvFc variants (about 500 RU) captured on a Protein A chip, AIP^VHH as analyte; Biacore X100, 25 °C, PBS pH 7.4 with 0.05% P20, 30 μl/min, 120 s injection, 500 s dissociation, 1:1 binding model.
Experiment [2] concerns the target anti-idiotypic nanobody for Palivizumab 3 (AIP3^VHH), soluble.
The target in experiment [3] is anti-idiotypic nanobody for Palivizumab 2 (AIP2^VHH), soluble.
The target in experiment [4] is anti-idiotypic nanobody for Palivizumab 1 (AIP1^VHH), soluble.
For experiment [5] the target is unchanged. This is another data set of the same source.
Experiment [6] concerns the target anti-idiotypic nanobody for Palivizumab 3 (AIP3^VHH), soluble. The source holds these as a separate data set.
For experiment [7], the target named is anti-idiotypic nanobody for Palivizumab 2 (AIP2^VHH), soluble. The source holds these as a separate data set.
Experiment [8] addresses anti-idiotypic nanobody for Palivizumab 1 (AIP1^VHH), soluble. This is another data set of the same source.
For experiment [9], the target named is anti-idiotypic nanobody for Palivizumab 3 (AIP3^VHH), soluble. This is another data set of the same source.
The target of experiment [10] is Palivizumab. The experiment in a line: ELISA; competitive: Palivizumab coated, HRP-conjugated anti-idiotypic IgG (AbD23967/HCA262P, 0.2 μg/ml; 1 nM in the legend) co-incubated with 0.1-100 nM soluble AIP1-4^VHH, 1% BSA in PBS, room temperature.
Experiment [11] has as its target Palivizumab single-chain variable fragment, light-heavy order, fused to IgG1 Fc (P^scFvLHFc).
Experiment [12] deals with Palivizumab single-chain variable fragment, heavy-light order, fused to IgG1 Fc (P^scFvHLFc). The experiment in a line: SPR; Palivizumab (about 1000 RU) or P^scFvFc variants (about 500 RU) captured on a Protein A chip, AIP^VHH as analyte; Biacore X100, 25 °C, PBS pH 7.4 with 0.05% P20, 30 μl/min, 120 s injection, 500 s dissociation, 1:1 binding model. Background: Surface plasmon resonance follows binding to a sensor surface in real time, without labels.

Experiment [13] concerns the target Palivizumab single-chain variable fragment, light-heavy order, fused to IgG1 Fc (P^scFvLHFc). The experiment is described as above.

B1: anti-idiotypic nanobody for Palivizumab 4 (AIP4^VHH), soluble (VHH)
VHH: DVQLQESGGGLVQAGGSLRLSCVASGRAFSRYDMGWFRQAPGKEREFVAQISWRGGSATSYADTVKGRFTIARDNAKNTVYLQMNSLKPEDTAVYYCNARTPTLSSWGQGTQVTVSS
With B1, the Kd with Palivizumab [1] was 3.14 nM.

B2: Palivizumab (antibody, V domains shown)
VH: QVTLRESGPALVKPTQTLTLTCTFSGFSLSTSGMSVGWIRQPPGKALEWLADIWWDDKKDYNPSLKSRLTISKDTSKNQVVLKVTNMDPADTATYYCARSMITNWYFDVWGAGTTVTVSS
VL: DIQMTQSPSTLSASVGDRVTITCKCQLSVGYMHWYQQKPGKAPKLLIYDTSKLASGVPSRFSGSGSGTEFTLTISSLQPDDFATYYCFQGSGYPFTFGGGTKLEIK
In [2], B2 gave an EC50 of proliferation of Ba/F3-gp130-AIP3^VHHgp130 cells, Palivizumab cross-linked with a 6-fold molar excess of hFc-mAb of 2.71 nM and a proliferation of Ba/F3-gp130 cells expressing AIP3^VHHgp130, Palivizumab 0.033-66 nM, percent of the maximal proliferation with HIL-6 of 20%. In experiment [3], this molecule came in with an EC50 of proliferation of Ba/F3-gp130-AIP2^VHHgp130 cells, Palivizumab cross-linked with a 6-fold molar excess of hFc-mAb of 48.8 nM. In addition, in experiment [4], the EC50 of proliferation of Ba/F3-gp130-AIP1^VHHgp130 cells, Palivizumab cross-linked with a 6-fold molar excess of hFc-mAb came to 215 nM. In experiment [5], the IC50 of Palivizumab (0.49-1000 nM) for proliferation of Ba/F3-gp130-AIP1^VHHgp130 cells induced by 2 nM P^scFvLHFc; blocks P^scFvLHFc with AIP1^VHHgp130 amounted to 8.28 nM and the molar excess of Palivizumab over P^scFvLHFc (2 nM) for complete suppression of STAT3 phosphorylation in Ba/F3-gp130-AIP1^VHHgp130 cells (fold molar excess) was above 8.

B3: Palivizumab single-chain variable fragment, heavy-light order, fused to IgG1 Fc (P^scFvHLFc) (Fc fusion)
VH: B2 VH
VL: B2 VL
In the case of B3, the EC50 of proliferation of Ba/F3-gp130-AIP3^VHHgp130 cells, P^scFvHLFc 0.00056-100 nM (Fig. 6E) in experiment [6] was determined as 9.1 nM. In [7], this molecule showed an EC50 of proliferation of Ba/F3-gp130-AIP2^VHHgp130 cells, P^scFvHLFc 0.00056-100 nM (Fig. 6E) of 0.7 nM. Further, in experiment [8], the EC50 of proliferation of Ba/F3-gp130-AIP1^VHHgp130 cells, P^scFvHLFc 0.00056-100 nM (Fig. 6E) came out at 0.4 nM; the EC50 of proliferation of Ba/F3-gp130-AIP1^VHHgp130 cells, P^scFvHLFc 0.00563-5.77 nM (Fig. 6H) was 0.5 nM; the lowest concentration that induced STAT3 phosphorylation in Ba/F3-gp130-AIP1^VHHgp130 cells (0.19 to 6 nM tested, Fig. 6I) came to 0.19 nM.

B4: Palivizumab single-chain variable fragment, light-heavy order, fused to IgG1 Fc (P^scFvLHFc) (Fc fusion)
VH: B2 VH
VL: B2 VL
In experiment [9], B4 gave a caspase 3/7 activity in Ba/F3-gp130-AIP3^VHHFas cells, dimeric P^scFvLHFc 0.1-100 nM, percent of the activity with cross-linked 2× P^scFvLHFc below 50%. The molecule also came in with an EC50 of proliferation of Ba/F3-gp130 cells expressing AIP3^VHHgp130, P^scFvLHFc 0.00053-93.5 nM (Fig. 6B) in experiment [6] of 6.61 nM. In experiment [8], the EC50 of proliferation of Ba/F3-gp130-AIP1^VHHgp130 cells, P^scFvLHFc 0.00563-5.77 nM (Fig. 6H) turned out to be 0.38 nM; the EC50 of proliferation of Ba/F3-gp130 cells expressing AIP1^VHHgp130, P^scFvLHFc 0.00053-93.5 nM (Fig. 6B) amounted to 0.21 nM; the lowest concentration that induced STAT3 phosphorylation in Ba/F3-gp130-AIP1^VHHgp130 cells (0.19 to 6 nM tested, Fig. 6I) was 1.5 nM.

B5: anti-idiotypic nanobody for Palivizumab 2 (AIP2^VHH), soluble (VHH)
VHH: DVQLQESGGGLVQAGGSLRLSCAASESLFRLNAMGWYRQAPGKQRELVAGITTSGDAVYADSVKGRFTISRDSAKNTVYLQTNNLKPEDTAVYYCNVRPRAGTWENARIGVWGQGTQVTVSS
B5: the IC50 with Palivizumab [10] is 4.4 nM. Besides, the Kd in the experiment with Palivizumab [1] is 2.16 nM. In [11], the IC50 of soluble AIP2^VHH (0.49-1000 nM) for proliferation of Ba/F3-gp130-AIP1^VHHgp130 cells induced by 2 nM P^scFvLHFc; blocks P^scFvLHFc with AIP1^VHHgp130 came out at 83.1 nM.

B6: anti-idiotypic nanobody for Palivizumab 3 (AIP3^VHH), soluble (VHH)
VHH: DVQLQESGGGLVQPGGSLRLSCVASGRTWSIYAMGWFRQAPGKEREFVTAISISRSESVTHYAESVTGRFTISRDNAKNTLHLQMNSLKPEDTAVYFCAADRRSIDPHHTIDYWGQGTQVTVSS
In the case of B6, in the experiment with Palivizumab [10], the 50% inhibitory concentration (IC50) turned out to be 48.5 nM. The same molecule had a Kd in the experiment with Palivizumab [1] of 1.11 nM. This molecule had an IC50 of soluble AIP3^VHH (0.49-1000 nM) for proliferation of Ba/F3-gp130-AIP1^VHHgp130 cells induced by 2 nM P^scFvLHFc; blocks P^scFvLHFc with AIP1^VHHgp130 in experiment [11] of 364 nM.

B7: anti-idiotypic nanobody for Palivizumab 1 (AIP1^VHH), soluble (VHH)
VHH: DVQLQESGGGLVQAGGSLRLSCVASGLTFRYDMGWFRQAPGKEREFVAQITWRGGSATYYADSVKGRFTIARDIAKNAVYLQMNSLKPEDTAVYYCAAAYGSAGYRPDEYDSWGQGTQVTVSS
For B7, in the experiment with Palivizumab [10], the IC50 was 1.76 nM. For the same molecule, the Kd in [12] turned out to be 0.0272 nM; with Palivizumab [1], 0.026 nM; in experiment [13], 0.0098 nM. Further, the koff in the experiment with Palivizumab [1] worked out at 5.9e-05 s⁻¹. The same molecule registered an on-rate constant (kon) in the experiment with Palivizumab [1] of 2.3e+06 M⁻¹ s⁻¹. Also, the IC50 of soluble AIP1^VHH (0.49-1000 nM) for proliferation of Ba/F3-gp130-AIP1^VHHgp130 cells induced by 2 nM P^scFvLHFc; blocks P^scFvLHFc with AIP1^VHHgp130 in experiment [11] was 2.79 nM.

Broadly, the Kd is a measure of binding affinity in units of concentration. A word on the IC50: it is the concentration that inhibits the measured activity by half. Broadly, the koff is the rate constant with which the complex falls apart. Lower therefore signals slow dissociation. As a reminder, the kon is a measure of how fast the partners come together.

The values above are taken from PMC10630626.
